According to patent publication US20140090111A1, “Plant Hormone Biosensors” (Carnegie Institution of Washington, priority 2012, published 2014):
Numbering of substitutions follows the chain as printed. Names and notes keep the numbering of the source.

B1: GID1C(S114A): GA biosensor mutant variant, mutation of a GA binding residue of GID1C (protein, UniProt Q940G6 2-344, looked up, variant S114A)
Gibberellin receptor GID1C: AGSEEVNLIESKTVVPLNTWVLISNFKLAYNLLRRPDGTFNRHLAEFLDRKVPANANPVNGVFSFDVIIDRQTNLLSRVYRPADAGTSPSITDLQNPVDGEIVPVIVFFHGGAFAHSSANSAIYDTLCRRLVGLCGAVVVSVNYRRAPENRYPCAYDDGWAVLKWVNSSSWLRSKKDSKVRIFLAGDSSGGNIVHNVAVRAVESRIDVLGNILLNPMFGGTERTESEKRLDGKYFVTVRDRDWYWRAFLPEGEDREHPACSPFGPRSKSLEGLSFPKSLVVVAGLDLIQDWQLKYAEGLKKAGQEVKLLYLEQATIGFYLLPNNNHFHTVMDEIAAFVNAECQ
modifications: within FRET biosensor
B2: GID1C P98A: GA biosensor mutant variant rendering GID interaction with DELLA constitutive; control (protein, UniProt Q940G6 2-344, looked up, variant P98A)
Gibberellin receptor GID1C: B1 Gibberellin receptor GID1C with P97A, A113S
modifications: within FRET biosensor
notes: control

Experiment: FRET fluorescence emission response of GA biosensors to GA
Format: binding
Settings: FIG. 9
From the text: FIG. 9 depicts the fluorescence emission curves of a GA biosensor in response to GA. Also depicted are the GA responses of biosensor mutant variants. A: GA response of SMSX39L10.DR43 (RGA2 and GID1C sub-domains, L10 linker, Venus and Cerulean fluorescent proteins).
Expression and screening hormone biosensors using Saccharomyces cerevisiae as a eukaryotic host cell to better express the eukaryotic hormone binding domains. S. cerevisiae can be adapted to a high-throughput expression system. A new library of GATEWAY™ destination vectors was created for expression in yeast (Table IV, FIG. 2). Although expression of SMS in S. cerevisiae was successful as determined by fluorescence emissions, purification of sensors from the host cells was not possible because of cleavage of the hormone binding domains of the SMS proteins upon cell lysis, which can be important because the rate of transport of many plant hormones into yeast cells is low. […] SMS proteins were subsequently screened from cell lysates and after purification using metal-affinity chromatography, if the clones included an N-terminal 6HIS tag.
Subsequent experiments identified protocols for yeast cell transformation, culture and lysis, metal-affinity chromatography, and fluorescence analysis after hormone treatment in a 96-well format. Thus, a novel high-throughput platform for creation and screening of SMS had been developed. […]

Row | Molecule | GA affinity / GA response of biosensor
1 | B1 | reduced GA affinity
2 | B2 | GA non-responsive
